Reference: PMC10609148 (Molecules, 2023)

Legend:
Settings in all cases: both partners purified
[1] = biological target: T1, Human Aβ(1–42)-HiLyte^TM-Fluor555 (human, UniProt P05067 672-713, HiLyte^TM-Fluor555 dye covalently bound to ASP1 (NH2-terminus amino acid)); assay: other fluorescence titration; His6 added to 10 nM Aβ(1–42) HiLyte-Fluor555 in solution; increase in dye fluorescence (ex 520 nm, em 567 nm) at the end of the kinetics (2000 s); 50 mM HEPES, 100 mM KCl, 50 µM CaCl2, pH 7.05, 24–25 °C
T1 construct: Amyloid β peptide Aβ(1–42), human, cut product of the amyloid precursor protein; numbers count on: the Aβ peptide; source: bought: AnaSpec

[2] = biological target: T1, Human Aβ(1–42)-HiLyte^TM-Fluor555; assay: other fluorescence titration; competition: 10 nM Aβ(1–42) HiLyte-Fluor555 preincubated 15 min with rising His6, then 5 nM CaM added; attenuation of the maximum fluorescence increase; 50 mM HEPES, 100 mM KCl, 50 µM CaCl2, pH 7.05, 24–25 °C
[3] = biological target: T1, Human Aβ(1–42)-HiLyte^TM-Fluor555; assay: other fluorescence titration; competition: 10 nM Aβ(1–42) HiLyte-Fluor555 preincubated 15 min with rising His6, then 5 nM calbindin-D28k added; attenuation of the maximum fluorescence increase; 50 mM HEPES, 100 mM KCl, 50 µM CaCl2, pH 7.05, 24–25 °C

B1: hexa-histidine peptide (His6) (peptide)
peptide: HHHHHH
notes: hexa-histidine; source: bought: Quimigen
EC50 [1]: 50 to 60 nM
IC50 [2]: ~1000 nM
IC50 [3]: ~100 nM
